{
  "source": "patent US20100203552",
  "key": {"[1]": {"system": "GST-Bim polypeptide [GST: P08515]"}, "[2]": {"system": "phosphorylated GST-Bim fusion protein [GST: P08515]", "sequence (P08515 whole entry, looked up, the tested form may be a part)": "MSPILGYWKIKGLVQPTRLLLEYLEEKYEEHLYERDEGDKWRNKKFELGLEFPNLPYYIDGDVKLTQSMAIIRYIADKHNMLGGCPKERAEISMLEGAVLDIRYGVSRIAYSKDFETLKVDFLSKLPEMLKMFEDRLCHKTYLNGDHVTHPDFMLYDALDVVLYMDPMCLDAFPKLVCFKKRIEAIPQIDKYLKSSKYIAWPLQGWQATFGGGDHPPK"}, "[3]": {"biological_target": "GST-Bim polypeptide [GST: P08515]", "remark": "listed apart in the source"}},
  "data": [
    {"molecule": "Myc-tagged TRIM2 (myc-TRIM2)", "values": [
      {"measurement": "Bim ubiquitination", "setting": "[1]", "value": "Incubation of TRIM2 polypeptide with Bim resulted in low levels of Bim ubiquitination"},
      {"measurement": "Bim ubiquitination", "setting": "[2]", "value": "addition of active MAPK to the reaction enhanced Bim ubiquitination"}
    ]},
    {"molecule": "TRIM2 protein from rat brain lysate / rat cortical neuronal cell lysates (protein) MQRAGSRTAGPTCQWSRMASEGASIPSPVVRQIDKQFLICSICLERYKNPKVLPCLHTFCERCLQNYIPAHSLTLSCPVCRQTSILPEKGVAALQNNFFITNLMDVLQRTPGSNGEDPSILQTVTAVAAGKPLSCPNHDGNVMEFYCQSCETAMCRECTEGEHAEHPTVPLKDVVEQHKASLQVQLDAVNKRLPEIDSALQFISEIIHQLTNQKASIVDDIHSTFDELQKTLNVRKSVLLMELEVNYGLKHKVLQSQLDTLLQGQESIKSCSNFTAQALNHGTETEVLLVKKQMSEKLNELADQDFPLHPRENDQLDFIVETEGLKKSIHNLGTILTTNAVASETVATGEGLRQTIIGQPMSVTITTKDKDGELCKTGNAYLTAELSTPDGSVADGEILDNKNGTYEFLYTVQKEGDFTLSLRLYDQHIRGSPFKLKVIRSADVSPTTEGVKRRVKSPGSGHVKQKAVKRPASMYSTGKRKENPIEDDLIFRVGTKGRNKGEFTNLQGVAASTSGKILIADSNNQCVQIFSNDGQFKSRFGIRGRSPGQLQRPTGVAVHPSGDIIIADYDNKWVSIFSNDGKFKTKIGSGKLMGPKGVSVDRNGHIIVVDNKACCVFIFQPNGKIVTRFGSRGNGDRQFAGPHFAAVNSSNEIIITDFHNHSVKVFNQEGEFMLKFGSNGEGNGQFNAPTGVAVDSNGNIIVADWGNSRIQVFDGSGSFLSYINTSADPLYGPQGLALTSDGHVVVADSGNHCFKVYRYLQ", "values": [
      {"measurement": "Bim ubiquitination (anti-ubiquitin immunoblot of immunoprecipitated GST-Bim)", "setting": "[3]", "value": "immunodepletion of TRIM2 protein reduces Bim ubiquitination in lysates from preconditioned cells to that of control lysates"}
    ]}
  ]
}
